Measurements from patent US20250074995A1 (I MAB BIOPHARMA, published 2025).

Biological target: T1, monomeric human 4-1BB (human, UniProt Q07011 24-186)
T1 construct: SPR analyte or ligand
Assay: SPR with monomeric human 4-1BB

B1: parental anti-4-1BB sdAb antibody conjugated with IgG1 Fc fragment (Fc fusion)
chain: QVQLQESGGGLVQPGGSLRLSCAASGYTYSSNCMGWFRQAPGKGLEGVAVICTGGGSPSYADSVKGRFTISRDNAKNTLYLQMNSLRAEDTAVYYCAADLLRAGTPLSSYEFNYWGQGTLVTVSS
notes: also called 4-1BB sdAb-Fc; not shown: IgG1 Fc fragment
  koff: 0.000168 s⁻¹
